Series [1] is described as follows: western blot, BEL7402-SIX1KO rescue cells, TMG. The note with it: glycan lost; control: wild-type SIX1, TMG-treated.
Series [2] can be described thus: ubiquitin affinity bead pulldown, SIX1 blot, MG132 and NEM. The settings on record: glycan lost; control: wild-type SIX1, TMG-treated.
A short description of series [3]: CHX chase western blot (half-life), TMG. The note with it: glycan lost; control: wild-type SIX1, TMG-treated. On the technique in general: A western blot detects proteins with antibodies after separation by electrophoresis.
The nature of series [4]: western blot, BEL7402 and BEL7404 cells. The settings on record: glycan lost; control: untreated / control lentivirus.

B1: SIX1 (sine oculis homeobox homolog 1): T276A (protein)
parent chain: MSMLPSFGFTQEQVACVCEVLQQGGNLERLGRFLWSLPACDHLHKNESVLKAKAVVAFHRGNFRELYKILESHQFSPHNHPKLQQLWLKAHYVEAEKLRGRPLGAVGKYRVRRKFPLPRTIWDGEETSYCFKEKSRGVLREWYAHNPYPSPREKRELAEATGLTTTQVSNWFKNRRQRDRAAEAKERENTENNNSSSNKQNQLSPLEGGKPLMSSSEEEFSPPQSPDQNSVLLLQGNMGHARSSNYSLPGLTASQPSHGLQTHQHQLQDSLLGPLTSSLVDLGS
In the case of B1, in series [1], the expression_or_secretion result is on record as “decreases”. Also, in series [2], the “other: ubiquitination” value is recorded as “increases”. Moreover, the degradation_or_half_life entry in series [3] is given as “decreases”.

B2: SIX1 (sine oculis homeobox homolog 1): OGT knockdown (protein)
parent chain: MSMLPSFGFTQEQVACVCEVLQQGGNLERLGRFLWSLPACDHLHKNESVLKAKAVVAFHRGNFRELYKILESHQFSPHNHPKLQQLWLKAHYVEAEKLRGRPLGAVGKYRVRRKFPLPRTIWDGEETSYCFKEKSRGVLREWYAHNPYPSPREKRELAEATGLTTTQVSNWFKNRRQRDRAAEAKERENTENNNSSSNKQNQLSPLEGGKPLMSSSEEEFSPPQSPDQNSVLLLQGNMGHARSSNYSLPGLTASQPSHGLQTHQHQLQDSLLGPLTSSLVDLGS
As for B2, the expression_or_secretion entry in series [4] is listed as “decreases”.

These data come from PMC7449927.
